From PMC8371082, “En route to dynamic life processes by SNARE-mediated fusion of polymer and hybrid membranes” (Nature Communications, 2021) come the findings set out here.

In the assay the target is T1, Syntaxin-1A (183-288) (Rattus norvegicus, UniProt P32851 183-288).
T1 construct: Syntaxin-1A, Rattus norvegicus, residues 183-288
Description: complex assembly from purified proteins, isolated by ion-exchange chromatography; truncated syb-2, syntaxin-1A and SNAP-25a mixed at 1.5:1:1 molar ratio, incubated at 4 °C overnight, complex purified by ion-exchange chromatography in the presence of CHAPS. To be noted: both partners purified.

T1 sequence (P32851 183-288): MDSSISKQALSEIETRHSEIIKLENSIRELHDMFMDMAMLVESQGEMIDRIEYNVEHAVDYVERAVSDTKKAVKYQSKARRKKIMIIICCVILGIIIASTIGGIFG

B1: Truncated synaptobrevin-2 (49-96) (domain or fragment, Rattus norvegicus, UniProt P63045 49-96, looked up)
chain: NVDKVLERDQKLSELDDRADALQAGASQFETSAAKLKRKYWWKNLKMM
notes: Synaptobrevin-2 (VAMP2), Rattus norvegicus, residues 49-96; also called truncated syb-2; C-terminal syb fragment
B1: the binding result is listed as “binds”.
